Read-outs that look alike come from different tables or passages of the source.

Assay [1] has as its target T1, FLAG-tagged human angiotensin II type I receptor (FLAG-AT1R) (human).
T1 construct: also called WT receptor; pMAS85; source: Expi293F TetR, transfected, purified in LMNG/CHS (M1-αFLAG resin, SEC); also Expi293F TetR cells stably expressing FLAG-AT1R under a tetracycline-inducible promoter, on intact cells; not shown: FLAG, N-terminal, kept
T1 chain: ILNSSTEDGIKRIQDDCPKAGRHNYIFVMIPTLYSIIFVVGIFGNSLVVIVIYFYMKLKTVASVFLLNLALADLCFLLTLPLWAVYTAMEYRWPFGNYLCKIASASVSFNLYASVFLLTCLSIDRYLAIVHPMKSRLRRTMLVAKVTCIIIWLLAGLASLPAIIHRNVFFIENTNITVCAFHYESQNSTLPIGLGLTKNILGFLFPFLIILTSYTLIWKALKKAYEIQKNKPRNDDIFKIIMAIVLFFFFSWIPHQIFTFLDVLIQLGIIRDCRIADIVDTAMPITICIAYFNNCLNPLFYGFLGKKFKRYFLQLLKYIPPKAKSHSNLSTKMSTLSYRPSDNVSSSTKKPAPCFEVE
Kind of assay: flow cytometry on cells; soluble nanobody titrated on Expi293F TetR cells expressing FLAG-AT1R, receptor pre-bound to losartan (10 μM, 5 μM in washes); 20 mM Hepes pH 7.4, 150 mM NaCl, 0.1% BSA, 4 °C; detected with αV5-AlexaFluor647. The settings on record: one partner purified.

Assay [2] concerns the target T2, FLAG-tagged wild-type human angiotensin II type I receptor (FLAG-AT1R) (Homo sapiens, UniProt P30556).
T2 construct: angiotensin II type I receptor (AT1R), human, wild type; The signalling assays used FLAG-AT1R in HEK293T or HTLA cells; also called WT receptor; source: Expi293F TetR, transfected, purified in LMNG/CHS (M1-αFLAG resin, SEC); also on intact Expi293F TetR cells stably expressing FLAG-AT1R under a tetracycline-inducible promoter; not shown: FLAG, N-terminal, kept
Kind of assay: flow cytometry on cells; purified nanobody (single point 250 or 500 nM, or titrated) on Expi293F TetR cells expressing FLAG-AT1R preincubated with 10 μM losartan at 4 °C for 30 min; detected with αV5-AlexaFluor647; 20 mM Hepes pH 7.4, 150 mM NaCl, 0.1% BSA. The settings on record: one partner purified. (In flow cytometry, cells or beads pass a laser one at a time.)

Assay [3] has as its target T2, FLAG-tagged wild-type human angiotensin …. In words: flow cytometry on cells; nanobody displayed on yeast; 100 nM unliganded detergent-purified FLAG-AT1R in solution, detected with fluorophore-conjugated M1-αFLAG; 4 °C, 30 min; 20 mM Hepes pH 7.5, 150 mM NaCl, 2.8 mM CaCl2, 0.05% LMNG, 0.005% CHS. The conditions noted are these: one partner purified.
The target is the same in assay [4].
In assay [5] the target is FLAG-tagged wild-type human angiotensin II type I receptor (FLAG-AT1R) (human) (UniProt P30556). In words: flow cytometry on cells; purified nanobody (single point 250 nM, or titrated) on Expi293F TetR cells expressing FLAG-AT1R preincubated with 10 μM olmesartan at 4 °C for 30 min; detected with αV5-AlexaFluor647; 20 mM Hepes pH 7.4, 150 mM NaCl, 0.1% BSA.
The target in assay [6] is T2, FLAG-tagged wild-type human angiotensin …. In words: flow cytometry on cells; purified nanobody (single point 250 or 500 nM, or titrated) on Expi293F TetR cells expressing FLAG-AT1R, unliganded; 1 h; detected with αV5-AlexaFluor647; 20 mM Hepes pH 7.4, 150 mM NaCl, 0.1% BSA. The settings on record: one partner purified.
The target in assay [7] is T1, FLAG-tagged human angiotensin II type I …. Kind of assay: flow cytometry on cells; soluble nanobody titrated on Expi293F TetR cells expressing FLAG-AT1R, unliganded receptor; 20 mM Hepes pH 7.4, 150 mM NaCl, 0.1% BSA, 4 °C; detected with αV5-AlexaFluor647. The conditions noted are these: one partner purified.

T2 sequence (P30556 whole entry): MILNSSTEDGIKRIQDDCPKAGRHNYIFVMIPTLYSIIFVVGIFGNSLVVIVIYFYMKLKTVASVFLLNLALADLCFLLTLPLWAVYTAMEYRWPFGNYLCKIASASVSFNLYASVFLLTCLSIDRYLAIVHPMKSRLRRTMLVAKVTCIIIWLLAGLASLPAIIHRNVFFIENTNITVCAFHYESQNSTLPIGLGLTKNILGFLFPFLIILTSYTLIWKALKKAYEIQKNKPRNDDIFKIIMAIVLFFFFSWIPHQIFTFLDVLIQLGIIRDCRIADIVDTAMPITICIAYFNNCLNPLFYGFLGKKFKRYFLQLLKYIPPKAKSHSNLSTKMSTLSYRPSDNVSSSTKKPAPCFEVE

B1: nanobody AT206 (VHH)
VHH: QVQLQESGGGLVQAGGSLRLSCAASGSISYYRMGWYRQAPGKEREFVAGIGVGTTTNYADSVKGRFTISRDNAKNTVYLQMNSLKPEDTAVYYCAAYNYFPRSIVYYYVYWGQGTQVTVSS
notes: source: E. coli BL21(DE3), periplasm, purified (Ni-NTA); not shown: V5, C-terminal, kept
As for B1, in assay [1], binding was characterised by a dissociation constant (Kd) of 363 nM.

B2: AT206 (VHH)
VHH: QVQLQESGGGLVQAGGSLRLSCAASGSISYYRMGWYRQAPGKEREFVAGIGVGTTTNYADSVKGRFTISRDNAKNTVYLQMNSLKPEDTAVYYCAAYNYFPRSIVYYYVYWGQGTQVTVSS
notes: synthetic nanobody AT206; also in the deposited structures; also called parent clone of AT118-AT206; source: E. coli BL21(DE3), periplasm, purified (Ni-NTA); not shown: V5, C-terminal, kept
As for B2, the binding result in assay [2] is reported as “binds”.

B3: AT206, yeast-displayed (VHH)
VHH: QVQLQESGGGLVQAGGSLRLSCAASGSISYYRMGWYRQAPGKEREFVAGIGVGTTTNYADSVKGRFTISRDNAKNTVYLQMNSLKPEDTAVYYCAAYNYFPRSIVYYYVYWGQGTQVTVSS
notes: synthetic nanobody AT206; also in the deposited structures; the anchor is not described here
With B3, in assay [3], the binding result is listed as “binds”.

B4: AT210 (VHH)
VHH: QVQLQESGGGLVQAGGSLRLSCAASGTISSWSFMGWYRQAPGKEREFVATIAPGSSTNYADSVKGRFTISRDNAKNTVYLQMNSLKPEDTAVYYCAVYYGVPRFHVYWGQGTQVTVSS
Regarding B4, the binding result in assay [4] was “binds”.

B5: AT209 (VHH)
VHH: QVQLQESGGGLVQAGGSLRLSCAASGYIFYRYSMGWYRQAPGKEREFVAGISYGATTNYADSVKGRFTISRDNAKNTVYLQMNSLKPEDTAVYYCAAWGGRTLYFVYWGQGTQVTVSS
As to B5, the Kd in assay [5] worked out at 100 nM.

B6: AT209 L103D (VHH)
VHH: QVQLQESGGGLVQAGGSLRLSCAASGYIFYRYSMGWYRQAPGKEREFVAGISYGATTNYADSVKGRFTISRDNAKNTVYLQMNSLKPEDTAVYYCAAWGGRTDYFVYWGQGTQVTVSS
notes: as the chain of AT209 with L103D in CDR3; also called AT209 L103D^CDR3; AT209 L103D variant; source: E. coli BL21(DE3), periplasm, purified (Ni-NTA); not shown: V5, C-terminal, kept
As to B6, the binding result in assay [6] is “binds”.

B7: nanobody AT209 L103D (VHH)
VHH: QVQLQESGGGLVQAGGSLRLSCAASGYIFYRYSMGWYRQAPGKEREFVAGISYGATTNYADSVKGRFTISRDNAKNTVYLQMNSLKPEDTAVYYCAAWGGRTDYFVYWGQGTQVTVSS
notes: the substitution L103D is still to be applied; also called AT209 L103D^CDR3; source: E. coli BL21(DE3), periplasm, purified (Ni-NTA); not shown: V5, C-terminal, kept
In the case of B7, the Kd in assay [7] stood at 144 nM.

B8: AT207 (VHH)
VHH: QVQLQESGGGLVQAGGSLRLSCAASGYIFTHSSMGWYRQAPGKEREFVAAITVGANTNYADSVKGRFTISRDNAKNTVYLQMNSLKPEDTAVYYCAAYNPFYPVYIYWGQGTQVTVSS
notes: synthetic nanobody AT207; source: E. coli BL21(DE3), periplasm, purified (Ni-NTA); not shown: V5, C-terminal, kept
For B8, the binding result in assay [2] is reported as “binds”.

B9: AT208 (VHH)
VHH: QVQLQESGGGLVQAGGSLRLSCAASGYIFTRYRMGWYRQAPGKEREFVAAIGDGGTTNYADSVKGRFTISRDNAKNTVYLQMNSLKPEDTAVYYCAAYYVSRPNYGTIYVYWGQGTQVTVSS
notes: synthetic nanobody AT208; source: E. coli BL21(DE3), periplasm, purified (Ni-NTA); not shown: V5, C-terminal, kept
For the molecule B9, in assay [2], the binding result is on record as “binds”.

B10: AT203 (VHH)
VHH: QVQLQESGGLVQAGGSLRLSCAASGYISRSYDMGWYRQAPGKERELVASINEGSTTNYADSVKGRFTISRDNAKNTVYLQMNSLKPEDTAVYYCAAYTYGHGDYHVYWGQGTQVTVSS
In the case of B10, the binding result in assay [4] is “binds”.

B11: AT212 (VHH)
VHH: QVQLQESGGGLVQAGGSLRLSCAASGSISNYKYMGWYRQAPGKERELVATIGGGATTNYADSVKGRFTISRDNAKNTVYLQMNSLKPEDTAVYYCAAVRAGYSLYYPYFYYWGQGTQVTVSS
On to B11, for which, in assay [4], the binding result is given as “binds”.

B12: AT213 (VHH)
VHH: QVQLQESGGGLVQAGGSLRLSCAASGYIFYGATMGWYRQAPGKEREFVAGINYGGSTNYADSVKGRFTISRDNAKNTVYLQMNSLKPEDTAVYYCAVWDTYAQRRSSYFVYWGQGTQVTVSS
For the molecule B12, the binding result in assay [4] is reported as “binds”.

B13: AT211 (VHH)
VHH: QVQLQESGGGLVQAGGSLRLSCAASGTISHSAGMGWYRQAPGKERELVAAISGGTITNYADSVKGRFTISRDNAKNTVYLQMNSLKPEDTAVYYCAALGYWRRAGGTYYVVHYYWGQGTQVTVSS
notes: synthetic nanobody AT211; source: E. coli BL21(DE3), periplasm, purified (Ni-NTA); not shown: V5, C-terminal, kept
Consider B13, for which the binding result in assay [2] is “binds”.

B14: AT118-H CDR1-AT206 CDR2 CDR3 chimeric nanobody (AT118-AT206) (VHH)
VHH: QVQLQESGGGLVQAGGSLRLSCAASDYIYRRYRMGWYRQAPGKEREFVAGIGVGTTTNYADSVKGRFTISRDNAKNTVYLQMNSLKPEDTAVYYCAAYNYFPRSIVYYYVYWGQGTQVTVSS
notes: AT206 with its CDR1 replaced by CDR1 of AT118-H and the G26D stabilising substitution; also called AT118-H G26D CDR1, AT206 CDR 2&3; source: E. coli BL21(DE3), periplasm, purified (Ni-NTA); not shown: V5, C-terminal, kept
Regarding B14, the Kd in assay [1] turned out to be 153 nM; in assay [7] it was 206 nM.

B15: AT118-H CDR1-AT206 CDR2 CDR3 chimeric nanobody (AT118-AT206) (VHH)
VHH: QVQLQESGGGLVQAGGSLRLSCAASDYIYRRYRMGWYRQAPGKEREFVAGIGVGTTTNYADSVKGRFTISRDNAKNTVYLQMNSLKPEDTAVYYCAAYNYFPRSIVYYYVYWGQGTQVTVSS
notes: as the chain of AT206 with CDR1 replaced by CDR1 of AT118-H and the stabilising substitution G26D; also called AT118-AT206 chimera; source: E. coli BL21(DE3), periplasm, purified (Ni-NTA); not shown: V5, C-terminal, kept
As for B15, the “fold increase in affinity over AT206” value in assay [2] was 2 fold.

B16: AT205 (VHH)
VHH: QVQLQESGGGLVQAGGSLRLSCAASGYIFYDSVMGWYRQAPGKEREFVAAIAAGSSTNYADSVKGRFTISRDNAKNTVYLQMNSLKPEDTAVYYCGEYYNWLHQYWGQGTQVTVSS
notes: synthetic nanobody AT205; source: E. coli BL21(DE3), periplasm, purified (Ni-NTA); not shown: V5, C-terminal, kept
Regarding B16, the binding result in assay [2] was “binds”.

B17: AT201 (VHH)
VHH: QVQLQESGGGLVQAGGSLRLSCAASGTISDPPYMGWYRQAPGKERELVAAIDVGANTYYADSVKGRFTISRDNAKNTVYLQMNSLKPEDTAVYYCAVEYDAQVPHQYWGQGTQVTVSS
Turning to B17, in assay [4], the binding result is recorded as “binds”.

The term Kd denotes the equilibrium constant for the complex coming apart. Lower therefore signals a tighter complex.

(Values after article PMC11929449, “Epitope-directed selection of GPCR nanobody ligands with evolvable function” (Proceedings of the National Academy of Sciences of the …, 2025).)
